Reference: patent publication US20240117018A1

Assays:
Assay in all cases: cell-based or functional assay
[1] = molecular target: HIV-1 Env of pseudovirus 231966.c02 (HIV-1)
[2] = molecular target: HIV-1 Env of pseudovirus C1080.c03 (HIV-1)
[3] = molecular target: HIV-1 Env of pseudovirus 3301.v1.c24 (HIV-1)
[4] = molecular target: HIV-1 Env of pseudovirus T251-18 (HIV-1)
[5] = molecular target: HIV-1 Env of pseudovirus C4118.c09 (HIV-1)
[6] = molecular target: HIV-1 Env of pseudovirus 928-28 (HIV-1)
[7] = molecular target: HIV-1 Env of pseudovirus 6480.v4.c25 (HIV-1)
[8] = molecular target: HIV-1 Env of pseudovirus 191084 B7-19 (HIV-1)
[9] = molecular target: HIV-1 Env of pseudovirus 263-8 (HIV-1)
[10] = molecular target: HIV-1 Env of pseudovirus 3817.v2.c59 (HIV-1)
[11] = molecular target: HIV-1 Env of pseudovirus 6540.v4.c1 (HIV-1)
[12] = molecular target: HIV-1 Env of pseudovirus 6545.v4.c1 (HIV-1)
[13] = molecular target: HIV-1 Env of pseudovirus 6811.v7.c18 (HIV-1)
[14] = molecular target: HIV-1 Env of pseudovirus R2184.c04 (HIV-1)
[15] = molecular target: HIV-1 Env of pseudovirus BJOX028000.10.3 (HIV-1)
[16] = molecular target: HIV-1 Env of pseudovirus X2131_C1_B5 (HIV-1)
[17] = molecular target: HIV-1 Env of pseudovirus BJOX010000.06.2 (HIV-1)
[18] = molecular target: HIV-1 Env of pseudovirus 0815.v3.c3 (HIV-1)
[19] = molecular target: HIV-1 Env of pseudovirus T255-34 (HIV-1)
[20] = molecular target: HIV-1 Env of pseudovirus 191955_A11 (HIV-1)
[21] = molecular target: HIV-1 Env of pseudovirus R3265.c06 (HIV-1)
[22] = molecular target: HIV-1 Env of pseudovirus 620345.c01 (HIV-1)
[23] = molecular target: HIV-1 Env of pseudovirus X1193_c1 (HIV-1)
[24] = molecular target: HIV-1 Env of pseudovirus X1632_S2_B10 (HIV-1)
[25] = molecular target: HIV-1 Env of pseudovirus BJOX015000.11.5 (HIV-1)
[26] = molecular target: HIV-1 Env of pseudovirus P1981_C5_3 (HIV-1)
[27] = molecular target: HIV-1 Env of pseudovirus 3016.v5.c45 (HIV-1)
[28] = molecular target: HIV-1 Env of pseudovirus 9004SS_A3_4 (HIV-1)
[29] = molecular target: HIV-1 Env of pseudovirus 211-9 (HIV-1)
[30] = molecular target: HIV-1 Env of pseudovirus A07412M1.vrc12 (HIV-1)
[31] = molecular target: HIV-1 Env of pseudovirus BJOX025000.01.1 (HIV-1)
[32] = molecular target: HIV-1 Env of pseudovirus R1166.c01 (HIV-1)
[33] = molecular target: HIV-1 Env of pseudovirus 235-47 (HIV-1)
[34] = molecular target: HIV-1 Env of pseudovirus P0402_c2_11 (HIV-1)
[35] = molecular target: HIV-1 Env of pseudovirus X1254_c3 (HIV-1)
[36] = molecular target: HIV-1 Env of pseudovirus 89-F1_2_25 (HIV-1)

Substance: N49P7.1 (antibody)
- IC50 (neutralisation, TZM.bl cells) [1]: 0.203 µg/mL
- IC80 (neutralisation, TZM.bl cells) [1]: 0.705 µg/mL
- MPI [1]: 100
- IC50 [2]: 0.144 µg/mL
- IC80 [2]: 1.05 µg/mL
- MPI [2]: 100
- IC50 (neutralisation, TZM.bl cells) [3]: 0.041 µg/mL
- IC80 (neutralisation, TZM.bl cells) [3]: 0.111 µg/mL
- MPI [3]: 100
- IC50 [4]: 0.229 µg/mL
- IC80 [4]: 0.794 µg/mL
- MPI [4]: 100
- IC50 [5]: 0.048 µg/mL
- IC80 [5]: 0.216 µg/mL
- MPI [5]: 100
- IC50 [6]: 0.23 µg/mL
- IC80 [6]: 0.775 µg/mL
- MPI [6]: 100
- IC50 (neutralisation, TZM.bl cells) [7]: 0.056 µg/mL
- IC80 (neutralisation, TZM.bl cells) [7]: 0.192 µg/mL
- MPI [7]: 100
- IC50 [8]: 0.069 µg/mL
- IC80 [8]: 0.2 µg/mL
- MPI [8]: 100
- IC50 [9]: 0.104 µg/mL
- IC80 [9]: 0.392 µg/mL
- MPI [9]: 100
- IC50 (neutralisation, TZM.bl cells) [10]: 1.48 µg/mL
- IC80 (neutralisation, TZM.bl cells) [10]: 8.36 µg/mL
- MPI [10]: 97
- IC50 (neutralisation, TZM.bl cells) [11]: 14.7 µg/mL
- IC80 (neutralisation, TZM.bl cells) [11]: > 50 µg/mL
- MPI [11]: 75
- IC50 (neutralisation, TZM.bl cells) [12]: 1.15 µg/mL
- IC80 (neutralisation, TZM.bl cells) [12]: 16 µg/mL
- MPI [12]: 92
- IC50 (neutralisation, TZM.bl cells) [13]: 0.321 µg/mL
- IC80 (neutralisation, TZM.bl cells) [13]: 1.46 µg/mL
- MPI [13]: 100
- IC50 [14]: 0.018 µg/mL
- IC80 [14]: 0.04 µg/mL
- MPI [14]: 100
- IC50 [15]: 0.031 µg/mL
- IC80 [15]: 0.29 µg/mL
- MPI [15]: 100
- IC50 (neutralisation, TZM.bl cells) [16]: 0.129 µg/mL
- IC80 (neutralisation, TZM.bl cells) [16]: 0.431 µg/mL
- MPI [16]: 100
- IC50 [17]: 0.132 µg/mL
- IC80 [17]: 0.623 µg/mL
- MPI [17]: 100
- IC50 (neutralisation, TZM.bl cells) [18]: 0.023 µg/mL
- IC80 (neutralisation, TZM.bl cells) [18]: 0.064 µg/mL
- MPI [18]: 100
- IC50 [19]: 0.094 µg/mL
- IC80 [19]: 0.447 µg/mL
- MPI [19]: 100
- IC50 [20]: 1.99 µg/mL
- IC80 [20]: 10.1 µg/mL
- MPI [20]: 98
- IC50 [21]: 0.059 µg/mL
- IC80 [21]: 0.328 µg/mL
- MPI [21]: 100
- IC50 [22]: > 50 µg/mL
- IC80 [22]: > 50 µg/mL
- MPI [22]: 47
- IC50 [23]: 0.035 µg/mL
- IC80 [23]: 0.144 µg/mL
- MPI [23]: 100
- IC50 (neutralisation, TZM.bl cells) [24]: 17.9 µg/mL
- IC80 (neutralisation, TZM.bl cells) [24]: > 50 µg/mL
- MPI [24]: 65
- IC50 [25]: 0.111 µg/mL
- IC80 [25]: 0.487 µg/mL
- MPI [25]: 100
- IC50 (neutralisation, TZM.bl cells) [26]: 0.216 µg/mL
- IC80 (neutralisation, TZM.bl cells) [26]: 0.494 µg/mL
- MPI [26]: 100
- IC50 (neutralisation, TZM.bl cells) [27]: 0.559 µg/mL
- IC80 (neutralisation, TZM.bl cells) [27]: 2.54 µg/mL
- MPI [27]: 100
- IC50 [28]: 0.221 µg/mL
- IC80 [28]: 0.841 µg/mL
- MPI [28]: 100
- IC50 [29]: 0.34 µg/mL
- IC80 [29]: 1.17 µg/mL
- MPI [29]: 100
- IC50 (neutralisation, TZM.bl cells) [30]: 0.232 µg/mL
- IC80 (neutralisation, TZM.bl cells) [30]: 1.07 µg/mL
- MPI [30]: 100
- IC50 [31]: 0.057 µg/mL
- IC80 [31]: 0.378 µg/mL
- MPI [31]: 100
- IC50 [32]: 0.136 µg/mL
- IC80 [32]: 0.461 µg/mL
- MPI [32]: 100
- IC50 [33]: 0.078 µg/mL
- IC80 [33]: 0.419 µg/mL
- MPI [33]: 97
- IC50 [34]: 0.029 µg/mL
- IC80 [34]: 0.115 µg/mL
- MPI [34]: 100
- IC50 [35]: 3.96 µg/mL
- IC80 [35]: 18.2 µg/mL
- MPI [35]: 96
- IC50 (neutralisation, TZM.bl cells) [36]: 41.6 µg/mL
- IC80 (neutralisation, TZM.bl cells) [36]: > 50 µg/mL
- MPI [36]: 58
